Like-named read-outs stand apart in the source and are kept apart here.
B1: hAb 3: fully humanized mR24 based on framework shuffle (SEQ ID NOs: 32 and 33, VL framework V1-12 and VH framework V3-7) (antibody, V domains shown)
VH: EVQLVESGGGLVQPGGSLRLSCAASGFTFSNFGMHWVRQAPGKGLEWVAYISSGGSSINYADTVKGRFTISRDNAKNSLYLQMNSLRAEDTAVYYCARGGTGTRSLYYFDYWGQGTLVTVSS
VL: DIQMTQSPSSVSASVGDRVTITCRASQDIGNFLNWYQQKPGKAPKLLIYYTSRLQSGVPSRFSGSGSGTDFTLTISSLQPEDFATYYCQQGKTLPYTFGGGTKVEIK
B2: hAb 21: fully humanized mR24 based on framework shuffle (SEQ ID NOs: 30 and 31, VL framework V3-11 and VH framework V3-7) (antibody, V domains shown)
VH: EVQLVESGGGLVQPGGSLRLSCAASGFTFSNFGMHWVRQAPGKGLEWVAYISSGGSSINYADTVKGRFTISRDNAKNSLYLQMNSLRAEDTAVYYCARGGTGTRSLYYFDYWGQGTLVTVSS
VL: EIVLTQSPATLSLSPGERATLSCRASQDIGNFLNWYQQKPGQAPRLLIYYTSRLQSGIPARFSGSGSGTDFTLTISSLEPEDFAVYYCQQGKTLPYTFGGGTKVEIK
B3: KM871: chR24 (hAb.51) chimeric version (hIgG1, kappa) of KM641 (SEQ ID NOs: 28 and 29) (antibody, V domains shown)
VH: EVTLVESGGDFVKPGGSLKVSCAASGFAFSHYAMSWVRQTPAKRLEWVAYISSGGSGTYYSDSVKGRFTISRDNAKNTLYLQMRSLRSEDSAMYFCTRVKLGTYYFDSWGQGTTLTVSS
VL: DIQMTQTASSLPASLGDRVTISCSASQDISNYLNWYQQKPDGTVKLLIFYSSNLHSGVPSRFSGGGSGTDYSLTISNLEPEDIATYFCHQYSKLPWTFGGGTKLEIK

Assay: Estimation of binding affinity by Octet
Description: Murine R24 (mR24) is a murine antibody that binds GD3 (SEQ ID NOs: 17 and 19). To minimize the risk of immunogenicity, an attempt was made to humanize mR24 for further therapeutic development. An earlier attempt to humanize mR24 is disclosed in WO2008/101234. The CDRs of murine antibody mR24 were identified using Kabat. Humanization of mR24 was first attempted using the semi-empirical framework shuffle approach. In this approach, human germline frameworks with a high degree of homology with mR24 sequences, VL frameworks V1-12 and V3-11 and VH framework V3-7, were selected. The selected frameworks were then used as the acceptor framework for mR24 without any backmutations in the framework region. The CDRs of mR24 were then inserted into the acceptor frameworks, and antibody proteins were generated and assessed for their expression yield, purification properties, and GD3 target binding activity. After screening, two advanced humanization variants with high GD3 binding activity, overall expression yields, and stability, hAb 21 (SEQ ID NOs: 30 and 31, VL framework V3-11 and VH framework V3-7) and hAb3 (SEQ ID NOs: 32 and 33, VL framework V1-12 and VH framework V3-7), were further evaluated for their aggregation level after purification.

[1] = antibody concentrated (Ab 3 21.2 mg/ml, hAb 21 27.8 mg/ml), in Tier-1 buffer

Row | Molecule | Kd [1] [µM] | Kdis [1] [s⁻¹] | Kon [1] [M⁻¹ s⁻¹] | Kd (antibody dialyzed in PBS) [µM] | Kdis (antibody dialyzed in PBS) [s⁻¹] | Kon (antibody dialyzed in PBS) [M⁻¹ s⁻¹] | Kd [µM] | Kdis [s⁻¹] | Kon [M⁻¹ s⁻¹]
1 | B1 | 0.0597 | 0.00278 | 75400 | 0.0558 | 0.00144 | 37700 | – | – | –
2 | B2 | 0.0311 | 0.00111 | 44600 | 0.0289 | 0.00136 | 59700 | – | – | –
3 | B3 | – | – | – | – | – | – | 0.00902 | 0.00596 | 1.33e+06

— patent publication US20190048073A1, “ANTI-GD3 ANTIBODIES AND ANTIBODY-DRUG CONJUGATES” (Pfizer Inc., priority 2017, published 2019)
